{
  "source": "patent US20130252987A1",
  "about": "“METHOD OF REGULATING PLASMA LIPOPROTEINS” (MCMASTER UNIVERSITY, priority 2010, published 2013)",
  "molecules": {"B1": {"name": "human resistin: recombinant lyophilized purified human resistin (Calbiochem); cysteine-rich cytokine, single 12 kDa band (protein)", "chain": "KTLCSMEEAINERIQEVAGSLIFRAISSIGLECQSVTSRGDLATCPRGFAVTGCTCGSACGSWDVRAETTCHCQCAGMDWTGARCCRVQP"}},
  "key": {"rat primary hepatocytes": {"tested_on": "rat primary hepatocytes", "test": "cellular apoB100 protein expression in primary rat hepatocytes", "type": "cell-based", "conditions": "50 ng/mL, 24 hours", "protocol": "Primary Cells: Fresh wild-type rat and mouse primary heptaocytes were supplied by CellzDirect (Invitrogen, NC) in a 6-well collagen coated plate. Upon arrival, the storage media was removed and incubation media (Williams E Medium, phenol red free, with incubation supplement pack, Gibco, NC) was added according to manufactures' instructions. The cells were incubated at 37° C. with 5% CO2 for 16 hours prior to human resistin (50 ng/mL) treatment for 24 hours. Cryopreserved plateable human hepatocytes, metabolism qualified from multiple normal human donors, were supplied by CellzDirect (Invitrogen, NC). Upon arrival, the cells (4-8 million in 1 mL), according to the manufacturer's instruction, were added to 48 mL warmed thawing medium (CHRM® Medium, Invitrogen, NC) and centrifuged at 100×g for 10 min at room temperature. The pellet was re-suspended in 4 mL plating medium (Williams E Medium, phenol red free, with maintenance supplement pack and 10% FBS, Gibco, NC). The cells were stained by Trypan Blue (Sigma, Canada) and counted by a haemocytometer, followed by seeding 1×10^6 cells/well in a 6-well collagen coated plate (CellzDirect, Invitrogen, NC). The cells were incubated at 37° C. with 5% CO2 for 4 hours to allow the cells to adhere. The plating media was replaced and cell incubated for 16 hours prior to human resistin treatment for 24 hours. […]"}, "HepG2 cells [1]": {"tested_on": "HepG2 cells", "test": "FPLC lipoprotein profile of HepG2 cell media", "type": "cell-based, human", "conditions": "50 ng/mL, 24 hour", "protocol": "Lipids from HepG2 cell extracts were quantified by gas chromatography (GC) as described in Sahoo et al. (J. Lipid Res. 45:1122-1131). Briefly, cell extracts were incubated with phospholipase C (Sigma, ON) to remove polar head groups, then extracted in the presence of internal standard by the method of Folch et al. (J Biol Chem 226:497-509). Extracted lipids were passed through a sodium sulfate column to remove aqueous contaminants, and derivatized with Sylon BFT (Supelco, ON) to cap reactive hydroxyl and carboxyl groups. Derivatized lipids were dissolved in hexane and injected onto a Zebron ZB-5 column (Phenomenex, Torrance, Calif.) in an Agilent 6890 GC instrument. Lipoprotein Profiles. HepG2 media from 6-10 cm plates was collected and concentrated using an Amicon Centriprep concentrator 50 K and lipoprotein classes separated by fast protein liquid chromatography (FPLC) on a Superose 6 10/30 gel filtration column (Amersham, UK) followed by inline post-column reaction with either Infinity Triglyceride or Infinity Cholesterol reagent (Thermo Scientific, West Palm Beach, Fla.) and measurement of absorbance @ 500 nm.\nThe characteristics of the apoB-containing lipoprotein particles produced as a result of treatment of human hepatocytes with human resistin was determined. […]"}, "HepG2 cells [2]": {"tested_on": "HepG2 cells", "test": "insulin signaling pathway protein expression, Western blot", "type": "cell-based, human", "conditions": "50 ng/mL, 24 hours", "text": "Horseradish peroxidase-conjugated antibodies (BioRad, Hercules, Calif.) were used as secondary antibodies.\nAnother important regulator of hepatocyte apoB/VLDL assembly and stability is the intracellular insulin signaling pathway."}, "[3]": {"tested_on": "primary human hepatocytes", "test": "LDL receptor protein in primary human hepatocytes", "type": "cell-based", "conditions": "50 ng/mL, 24 hours", "protocol": "Cryopreserved plateable human hepatocytes, metabolism qualified from multiple normal human donors, were obtained from CellzDirect (Invitrogen, NC). The cells were seeded at 1×10^6 cells/well in a 6-well collagen coated plate according to the manufacturer's instructions (CellzDirect, Invitrogen, NC). The cells were incubated at 37° C. with 5% CO2 for 4 hours to allow the cells to adhere. The plating media was replaced and the cells incubated for 16 hours prior to human resistin 50 ng/mL treatment for 24 hours.\nTo determine if the above findings in immortalized HepG2 cells are relevant to humans, primary human hepatocytes […] (Invitrogen) were treated with human resistin at the optimum 50 ng/mL dose for 24 hours. […] While the magnitude of the inhibitory effect of human resistin on LDL receptor protein expression was not as large as with HepG2 cells, this was expected as primary hepatocytes are not as metabolically active as cultured hepatoma HepG2 hepatocytes."}},
  "data": [
    {"molecule": "B1", "values": [
      {"measurement": "increase in cellular apoB protein expression versus untreated control cells", "setting": "rat primary hepatocytes", "result": "40-50%"},
      {"measurement": "increase in secreted VLDL triglycerides and cholesterol relative to control untreated cells", "setting": "HepG2 cells [1]", "result": "8-9 fold"},
      {"measurement": "lipid contents of the secreted LDL or HDL fractions", "setting": "HepG2 cells [1]", "result": "virtually no change"},
      {"measurement": "decrease in expression of IRS-2, ERK, phosphorylated ERK, Akt and serine and threonine phosphorylated Akt", "setting": "HepG2 cells [2]", "result": "20-30%"},
      {"measurement": "LDL receptor protein versus untreated control cells", "setting": "[3]", "result": "significantly reduced"}
    ]}
  ]
}
